Experimental data as given in publication PMC11261597, “Three-Step Enzymatic Remodeling of Chitin into Bioactive Chitooligomers” (Journal of Agricultural and Food Chemistry, 2024).

The substances below were run on T1, CC(=O)N[C@H]1[C@H](Oc2ccc([N+](=O)[O-])cc2)O[C@H](CO)[C@@H](O[C@@H]2O[C@H](CO)[C@@H](O[C@@H]3O[C@H](CO)[C@@H](O)[C@H](O)[C@H]3NC(C)=O)[C@H](O)[C@H]2NC(C)=O)[C@@H]1O (assay: purified protein). Settings: 50 mM citrate/phosphate pH 5.0, 25 °C, 0.1–6 mM substrate.
T1 construct: synthetic gene, codon-optimised, pPICZαA (EcoRI/KpnI), secreted from Pichia pastoris KM71H, purified by Q-Sepharose
Format: biochemical, Talaromyces flavus

Sequence of TfChit (Talaromyces flavus; S181W/W209A) (chain, as listed by the source S181W W209A): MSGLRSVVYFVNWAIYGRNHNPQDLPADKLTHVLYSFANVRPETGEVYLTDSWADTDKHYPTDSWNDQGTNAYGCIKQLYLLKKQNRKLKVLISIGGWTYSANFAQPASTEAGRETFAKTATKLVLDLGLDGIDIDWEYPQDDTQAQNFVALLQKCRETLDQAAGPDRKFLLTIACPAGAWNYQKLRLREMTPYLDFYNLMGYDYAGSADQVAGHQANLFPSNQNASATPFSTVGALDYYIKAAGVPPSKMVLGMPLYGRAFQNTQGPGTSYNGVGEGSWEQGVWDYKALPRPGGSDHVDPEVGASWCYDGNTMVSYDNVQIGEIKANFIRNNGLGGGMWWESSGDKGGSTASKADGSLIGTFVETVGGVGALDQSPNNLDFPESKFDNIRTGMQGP
Sequence of TfChit (Talaromyces flavus) (chain, as listed by the source): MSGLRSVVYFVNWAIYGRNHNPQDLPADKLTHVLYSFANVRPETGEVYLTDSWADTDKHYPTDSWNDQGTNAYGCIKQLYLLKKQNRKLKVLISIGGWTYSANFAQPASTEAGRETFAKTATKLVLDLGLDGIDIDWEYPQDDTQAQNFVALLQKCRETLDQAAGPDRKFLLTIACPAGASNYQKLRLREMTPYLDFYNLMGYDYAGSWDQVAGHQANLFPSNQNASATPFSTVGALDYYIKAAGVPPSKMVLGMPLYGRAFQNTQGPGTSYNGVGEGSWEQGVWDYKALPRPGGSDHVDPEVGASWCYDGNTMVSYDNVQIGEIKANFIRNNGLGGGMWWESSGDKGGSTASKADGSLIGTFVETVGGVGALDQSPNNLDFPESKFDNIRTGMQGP
Sequence of TfChit (Talaromyces flavus; W209A) (chain, as listed by the source W209A): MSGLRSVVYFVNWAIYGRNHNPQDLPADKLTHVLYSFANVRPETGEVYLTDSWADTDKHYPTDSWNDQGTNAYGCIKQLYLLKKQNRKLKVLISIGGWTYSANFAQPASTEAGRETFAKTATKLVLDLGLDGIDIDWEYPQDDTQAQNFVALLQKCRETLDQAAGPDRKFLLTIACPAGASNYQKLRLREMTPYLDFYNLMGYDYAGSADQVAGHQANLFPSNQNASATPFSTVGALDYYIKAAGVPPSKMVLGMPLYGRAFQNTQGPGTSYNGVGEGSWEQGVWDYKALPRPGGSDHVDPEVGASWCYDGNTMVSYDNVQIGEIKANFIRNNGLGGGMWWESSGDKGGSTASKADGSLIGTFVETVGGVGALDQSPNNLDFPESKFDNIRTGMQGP
Sequence of TfChit (Talaromyces flavus; D136V/S181W) (chain, as listed by the source D136V S181W): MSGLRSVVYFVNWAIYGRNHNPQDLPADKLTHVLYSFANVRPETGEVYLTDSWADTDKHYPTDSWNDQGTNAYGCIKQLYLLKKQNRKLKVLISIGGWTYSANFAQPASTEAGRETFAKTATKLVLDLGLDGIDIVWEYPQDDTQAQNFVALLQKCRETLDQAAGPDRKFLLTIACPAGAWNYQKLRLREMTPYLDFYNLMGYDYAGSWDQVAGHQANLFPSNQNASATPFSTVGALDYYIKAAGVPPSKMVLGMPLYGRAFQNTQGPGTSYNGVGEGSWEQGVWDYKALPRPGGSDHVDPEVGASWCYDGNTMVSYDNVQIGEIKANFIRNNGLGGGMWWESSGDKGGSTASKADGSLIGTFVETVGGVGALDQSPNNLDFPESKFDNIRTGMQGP
Sequence of TfChit (Talaromyces flavus; D136V/W209A) (chain, as listed by the source D136V W209A): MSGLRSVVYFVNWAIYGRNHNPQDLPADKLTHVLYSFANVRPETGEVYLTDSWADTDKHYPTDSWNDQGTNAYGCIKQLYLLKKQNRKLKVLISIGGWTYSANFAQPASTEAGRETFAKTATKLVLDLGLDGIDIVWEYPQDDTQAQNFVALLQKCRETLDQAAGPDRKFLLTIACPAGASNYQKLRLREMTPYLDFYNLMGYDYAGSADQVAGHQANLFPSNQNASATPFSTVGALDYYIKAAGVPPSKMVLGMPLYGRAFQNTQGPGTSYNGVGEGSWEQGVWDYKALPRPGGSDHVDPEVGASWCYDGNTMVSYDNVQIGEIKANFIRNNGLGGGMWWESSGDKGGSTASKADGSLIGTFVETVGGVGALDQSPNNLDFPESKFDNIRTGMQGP
Sequence of TfChit (Talaromyces flavus; S181W) (chain, as listed by the source S181W): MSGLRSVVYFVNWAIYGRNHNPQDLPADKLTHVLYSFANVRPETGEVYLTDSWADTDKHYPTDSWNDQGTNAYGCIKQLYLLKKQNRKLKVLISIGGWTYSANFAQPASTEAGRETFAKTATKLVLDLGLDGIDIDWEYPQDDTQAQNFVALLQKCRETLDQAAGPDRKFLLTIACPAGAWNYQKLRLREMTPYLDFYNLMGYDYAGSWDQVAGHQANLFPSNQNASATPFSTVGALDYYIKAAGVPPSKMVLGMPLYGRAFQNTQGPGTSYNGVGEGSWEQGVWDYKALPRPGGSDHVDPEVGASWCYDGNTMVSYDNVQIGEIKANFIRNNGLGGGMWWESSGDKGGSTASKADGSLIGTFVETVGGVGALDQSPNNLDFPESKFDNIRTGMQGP
Sequence of TfChit (Talaromyces flavus; F231W) (chain, as listed by the source F231W): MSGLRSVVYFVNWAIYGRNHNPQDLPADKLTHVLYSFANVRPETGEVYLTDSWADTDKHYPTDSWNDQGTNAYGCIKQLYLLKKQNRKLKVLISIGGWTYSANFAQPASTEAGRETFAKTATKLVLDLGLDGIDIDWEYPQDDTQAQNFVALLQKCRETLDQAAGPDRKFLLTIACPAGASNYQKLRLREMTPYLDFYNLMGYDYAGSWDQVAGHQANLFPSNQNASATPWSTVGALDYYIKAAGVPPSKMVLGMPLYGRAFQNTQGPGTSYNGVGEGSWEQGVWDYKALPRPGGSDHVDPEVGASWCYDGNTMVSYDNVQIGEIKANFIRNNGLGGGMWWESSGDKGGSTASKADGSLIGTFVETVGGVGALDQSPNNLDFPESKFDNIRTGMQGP
Sequence of TfChit (Talaromyces flavus; D136V) (chain, as listed by the source D136V): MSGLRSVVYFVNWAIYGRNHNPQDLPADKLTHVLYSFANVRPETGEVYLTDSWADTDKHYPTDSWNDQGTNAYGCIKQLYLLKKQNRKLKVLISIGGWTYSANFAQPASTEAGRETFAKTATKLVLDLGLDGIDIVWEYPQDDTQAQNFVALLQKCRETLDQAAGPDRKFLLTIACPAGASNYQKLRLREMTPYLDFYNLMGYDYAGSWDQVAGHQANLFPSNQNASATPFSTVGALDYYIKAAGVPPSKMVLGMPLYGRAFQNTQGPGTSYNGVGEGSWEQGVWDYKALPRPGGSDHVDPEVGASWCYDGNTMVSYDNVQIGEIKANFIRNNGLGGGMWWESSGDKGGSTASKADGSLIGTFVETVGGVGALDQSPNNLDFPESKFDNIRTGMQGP
Sequence of TfChit (Talaromyces flavus; D136V/S181W/W209A) (chain, as listed by the source D136V S181W W209A): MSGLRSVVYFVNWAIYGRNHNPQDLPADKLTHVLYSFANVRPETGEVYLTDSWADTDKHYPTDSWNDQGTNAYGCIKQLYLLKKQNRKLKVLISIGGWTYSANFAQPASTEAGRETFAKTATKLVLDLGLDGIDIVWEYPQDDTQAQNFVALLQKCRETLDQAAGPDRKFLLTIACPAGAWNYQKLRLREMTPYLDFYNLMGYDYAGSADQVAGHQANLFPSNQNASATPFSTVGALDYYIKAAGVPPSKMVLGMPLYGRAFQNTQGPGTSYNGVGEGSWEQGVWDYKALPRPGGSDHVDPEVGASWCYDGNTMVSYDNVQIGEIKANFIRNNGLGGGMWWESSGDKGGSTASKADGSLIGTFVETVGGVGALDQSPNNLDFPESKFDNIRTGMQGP
Sequence of TfChit (Talaromyces flavus; F231W/W209A) (chain, as listed by the source F231W W209A): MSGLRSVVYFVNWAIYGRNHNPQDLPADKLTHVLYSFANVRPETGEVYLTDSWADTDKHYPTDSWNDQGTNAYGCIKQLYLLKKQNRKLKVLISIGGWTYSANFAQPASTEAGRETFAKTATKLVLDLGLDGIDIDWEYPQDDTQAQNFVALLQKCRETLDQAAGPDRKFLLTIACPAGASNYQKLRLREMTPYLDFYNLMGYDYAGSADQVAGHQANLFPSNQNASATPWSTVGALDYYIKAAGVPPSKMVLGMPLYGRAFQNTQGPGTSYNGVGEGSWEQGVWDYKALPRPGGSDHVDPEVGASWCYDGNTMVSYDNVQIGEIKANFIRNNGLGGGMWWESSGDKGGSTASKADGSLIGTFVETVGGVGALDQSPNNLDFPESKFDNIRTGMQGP

Row | Substance | Km [mmol·L^–1] | kcat [s⁻¹] | kcat/Km [M⁻¹ s⁻¹]
1 | TfChit (Talaromyces flavus; F231W) | 1.1 | 1.9 | 1800
2 | TfChit (Talaromyces flavus; D136V/S181W) | 4.3 | 5.3 | 1200
3 | TfChit (Talaromyces flavus; D136V/S181W/W209A) | 2.0 | 5.6 | 2800
4 | TfChit (Talaromyces flavus; S181W) | 1.5 | 6 | 4000
5 | TfChit (Talaromyces flavus; S181W/W209A) | 2.6 | 3.1 | 1200
6 | TfChit (Talaromyces flavus; W209A) | 3.3 | 6.1 | 1900
7 | TfChit (Talaromyces flavus; F231W/W209A) | 1.3 | 4.7 | 3500
8 | TfChit (Talaromyces flavus; D136V/W209A) | 3.6 | 8.2 | 2200
9 | TfChit (Talaromyces flavus) | 1.2 | 3.9 | 3300
10 | TfChit (Talaromyces flavus; D136V) | 1.1 | 5.3 | 5000
